B1: PAIP1 peptide 124-139 (Polyadenylate-binding protein-interacting protein 1), 16-mer library wild type / PABPC1 PABC (PABPC1 PABC domain, residues 544-623) (parent complex)
chain 1: LMSKLSVNAPEFYPSG
chain 2: PLTASMLASAPPQEQKQMLGERLFPLIQAMHPTLAGKITGMLLEIDNSELLHMLESPESLRSKVDEAVAVLQAHQAKEAA

Variants of: B1
Assay: proteomic peptide phage display deep mutational scan (ProP-PD DMS): M13 P8 16-mer library selected against immobilised GST-tagged bait for four days (rounds), NGS of the eluted pools per day and pseudo-replica; bait immobilised on MaxiSorp plates (10 µg), library pre-cleared on GST, 2 h binding at 4 °C, five washes; one round per day, days 1-4; value from days 2 and 3

Variant	screen value
chain 1 LMSKLSVNAPEFHPSG [chain 1 Y13H]	0.000948 average fractional NGS count over selection days 2 and 3 (reads of this peptide / all reads for the bait, averaged over …
chain 1 LMSKLSVNAPEFAPSG [chain 1 Y13A]	0.001 average fractional NGS count over selection days 2 and 3 (reads of this peptide / all reads for the bait, averaged over …
chain 1 LMSKLSVNAPEFEPSG [chain 1 Y13E]	0.00175 average fractional NGS count over selection days 2 and 3 (reads of this peptide / all reads for the bait, averaged over …
chain 1 LMSKLSVNAPEFQPSG [chain 1 Y13Q]	0.00152 average fractional NGS count over selection days 2 and 3 (reads of this peptide / all reads for the bait, averaged over …
chain 1 LMSKLSVNAPEFVPSG [chain 1 Y13V]	0.000146 average fractional NGS count over selection days 2 and 3 (reads of this peptide / all reads for the bait, averaged over …
chain 1 LMSKLSVNAPEFKPSG [chain 1 Y13K]	0.00389 average fractional NGS count over selection days 2 and 3 (reads of this peptide / all reads for the bait, averaged over …
chain 1 LMSKLSVNAPEFLPSG [chain 1 Y13L]	0.00572 average fractional NGS count over selection days 2 and 3 (reads of this peptide / all reads for the bait, averaged over …
chain 1 LMSKLSVNAPEFDPSG [chain 1 Y13D]	0.00104 average fractional NGS count over selection days 2 and 3 (reads of this peptide / all reads for the bait, averaged over …
chain 1 LMSKLSPNAPEFYPSG [chain 1 V7P]	0.00145 average fractional NGS count over selection days 2 and 3 (reads of this peptide / all reads for the bait, averaged over …
chain 1 LMSKLSANAPEFYPSG [chain 1 V7A]	0.00224 average fractional NGS count over selection days 2 and 3 (reads of this peptide / all reads for the bait, averaged over …
chain 1 LMSKLSYNAPEFYPSG [chain 1 V7Y]	0.000349 average fractional NGS count over selection days 2 and 3 (reads of this peptide / all reads for the bait, averaged over …
chain 1 LMSKLSSNAPEFYPSG [chain 1 V7S]	0.00035 average fractional NGS count over selection days 2 and 3 (reads of this peptide / all reads for the bait, averaged over …
chain 1 LMSKLSHNAPEFYPSG [chain 1 V7H]	0.00381 average fractional NGS count over selection days 2 and 3 (reads of this peptide / all reads for the bait, averaged over …
chain 1 LMSKLSVNAPEWYPSG [chain 1 F12W]	0.00452 average fractional NGS count over selection days 2 and 3 (reads of this peptide / all reads for the bait, averaged over …
chain 1 LMSKLSVNAPEYYPSG [chain 1 F12Y]	0.00127 average fractional NGS count over selection days 2 and 3 (reads of this peptide / all reads for the bait, averaged over …
chain 1 LMKKLSVNAPEFYPSG [chain 1 S3K]	0.000637 average fractional NGS count over selection days 2 and 3 (reads of this peptide / all reads for the bait, averaged over …
chain 1 LMTKLSVNAPEFYPSG [chain 1 S3T]	0.00109 average fractional NGS count over selection days 2 and 3 (reads of this peptide / all reads for the bait, averaged over …
chain 1 LMDKLSVNAPEFYPSG [chain 1 S3D]	0.000994 average fractional NGS count over selection days 2 and 3 (reads of this peptide / all reads for the bait, averaged over …
chain 1 LMLKLSVNAPEFYPSG [chain 1 S3L]	0.000356 average fractional NGS count over selection days 2 and 3 (reads of this peptide / all reads for the bait, averaged over …

Variant	screen value
chain 1 LMEKLSVNAPEFYPSG [chain 1 S3E]	0.000689 average fractional NGS count over selection days 2 and 3 (reads of this peptide / all reads for the bait, averaged over …
chain 1 LMHKLSVNAPEFYPSG [chain 1 S3H]	0.000523 average fractional NGS count over selection days 2 and 3 (reads of this peptide / all reads for the bait, averaged over …
chain 1 LMQKLSVNAPEFYPSG [chain 1 S3Q]	0.00262 average fractional NGS count over selection days 2 and 3 (reads of this peptide / all reads for the bait, averaged over …
chain 1 LMVKLSVNAPEFYPSG [chain 1 S3V]	0.00074 average fractional NGS count over selection days 2 and 3 (reads of this peptide / all reads for the bait, averaged over …
chain 1 LMSKLSVNSPEFYPSG [chain 1 A9S]	0.000704 average fractional NGS count over selection days 2 and 3 (reads of this peptide / all reads for the bait, averaged over …
chain 1 LMSKMSVNAPEFYPSG [chain 1 L5M]	0.0192 average fractional NGS count over selection days 2 and 3 (reads of this peptide / all reads for the bait, averaged over …
chain 1 LMSPLSVNAPEFYPSG [chain 1 K4P]	0.0037 average fractional NGS count over selection days 2 and 3 (reads of this peptide / all reads for the bait, averaged over …
chain 1 LMSELSVNAPEFYPSG [chain 1 K4E]	0.000553 average fractional NGS count over selection days 2 and 3 (reads of this peptide / all reads for the bait, averaged over …
chain 1 LMSTLSVNAPEFYPSG [chain 1 K4T]	0.00284 average fractional NGS count over selection days 2 and 3 (reads of this peptide / all reads for the bait, averaged over …
chain 1 LMSDLSVNAPEFYPSG [chain 1 K4D]	0.000813 average fractional NGS count over selection days 2 and 3 (reads of this peptide / all reads for the bait, averaged over …
chain 1 LMSYLSVNAPEFYPSG [chain 1 K4Y]	0.00101 average fractional NGS count over selection days 2 and 3 (reads of this peptide / all reads for the bait, averaged over …
chain 1 LMSQLSVNAPEFYPSG [chain 1 K4Q]	0.00289 average fractional NGS count over selection days 2 and 3 (reads of this peptide / all reads for the bait, averaged over …
chain 1 LMSILSVNAPEFYPSG [chain 1 K4I]	0.000664 average fractional NGS count over selection days 2 and 3 (reads of this peptide / all reads for the bait, averaged over …
chain 1 LMSMLSVNAPEFYPSG [chain 1 K4M]	0.000922 average fractional NGS count over selection days 2 and 3 (reads of this peptide / all reads for the bait, averaged over …
chain 1 LMSGLSVNAPEFYPSG [chain 1 K4G]	0.000301 average fractional NGS count over selection days 2 and 3 (reads of this peptide / all reads for the bait, averaged over …
chain 1 LMSHLSVNAPEFYPSG [chain 1 K4H]	0.00136 average fractional NGS count over selection days 2 and 3 (reads of this peptide / all reads for the bait, averaged over …
chain 1 LMSALSVNAPEFYPSG [chain 1 K4A]	0.00111 average fractional NGS count over selection days 2 and 3 (reads of this peptide / all reads for the bait, averaged over …
chain 1 LMSRLSVNAPEFYPSG [chain 1 K4R]	0.000924 average fractional NGS count over selection days 2 and 3 (reads of this peptide / all reads for the bait, averaged over …
chain 1 LMSKLSVNAPEFYPSK [chain 1 G16K]	0.000565 average fractional NGS count over selection days 2 and 3 (reads of this peptide / all reads for the bait, averaged over …

Variant	screen value
chain 1 LMSKLSVNAPEFYPST [chain 1 G16T]	0.000984 average fractional NGS count over selection days 2 and 3 (reads of this peptide / all reads for the bait, averaged over …
chain 1 LMSKLSVNAPEFYPSH [chain 1 G16H]	0.00575 average fractional NGS count over selection days 2 and 3 (reads of this peptide / all reads for the bait, averaged over …
chain 1 LMSKLSVNAPEFYPSD [chain 1 G16D]	0.000205 average fractional NGS count over selection days 2 and 3 (reads of this peptide / all reads for the bait, averaged over …
chain 1 LMSKLSVNAPEFYPSV [chain 1 G16V]	0.0229 average fractional NGS count over selection days 2 and 3 (reads of this peptide / all reads for the bait, averaged over …
chain 1 LMSKLSVNAPEFYPSS [chain 1 G16S]	0.0008 average fractional NGS count over selection days 2 and 3 (reads of this peptide / all reads for the bait, averaged over …
chain 1 LMSKLSVNAPEFYPSI [chain 1 G16I]	0.00186 average fractional NGS count over selection days 2 and 3 (reads of this peptide / all reads for the bait, averaged over …
chain 1 LMSKLSVNAPEFYPSE [chain 1 G16E]	0.000703 average fractional NGS count over selection days 2 and 3 (reads of this peptide / all reads for the bait, averaged over …
chain 1 LMSKLSVNAPEFYPSQ [chain 1 G16Q]	0.00204 average fractional NGS count over selection days 2 and 3 (reads of this peptide / all reads for the bait, averaged over …
chain 1 LMSKLSVNAPEFYPSF [chain 1 G16F]	0.00158 average fractional NGS count over selection days 2 and 3 (reads of this peptide / all reads for the bait, averaged over …
chain 1 LMSKLSVNAPEFYPSM [chain 1 G16M]	0.00176 average fractional NGS count over selection days 2 and 3 (reads of this peptide / all reads for the bait, averaged over …
chain 1 LMSKLSVTAPEFYPSG [chain 1 N8T]	0.00351 average fractional NGS count over selection days 2 and 3 (reads of this peptide / all reads for the bait, averaged over …
chain 1 LMSKLSVFAPEFYPSG [chain 1 N8F]	0.00423 average fractional NGS count over selection days 2 and 3 (reads of this peptide / all reads for the bait, averaged over …
chain 1 LMSKLSVWAPEFYPSG [chain 1 N8W]	0.000471 average fractional NGS count over selection days 2 and 3 (reads of this peptide / all reads for the bait, averaged over …
chain 1 LMSKLSVMAPEFYPSG [chain 1 N8M]	0.000551 average fractional NGS count over selection days 2 and 3 (reads of this peptide / all reads for the bait, averaged over …
chain 1 LMSKLSVYAPEFYPSG [chain 1 N8Y]	0.000292 average fractional NGS count over selection days 2 and 3 (reads of this peptide / all reads for the bait, averaged over …
chain 1 LMSKLSVSAPEFYPSG [chain 1 N8S]	0.00131 average fractional NGS count over selection days 2 and 3 (reads of this peptide / all reads for the bait, averaged over …
chain 1 LMSKLSVLAPEFYPSG [chain 1 N8L]	0.00116 average fractional NGS count over selection days 2 and 3 (reads of this peptide / all reads for the bait, averaged over …
chain 1 LMSKLSVAAPEFYPSG [chain 1 N8A]	0.000206 average fractional NGS count over selection days 2 and 3 (reads of this peptide / all reads for the bait, averaged over …

Source: article PMC12102759 (2025)
